# Experimental data from PMC3874396.
# Experiments:
# [1] = molecular target: RNC^EspP-SRP complex (SRP with DACM-labeled Ffh(C235), loaded with RNC^EspP) (Escherichia coli | not stated) (UniProt P0AGD7); assay: FRET or BRET
# [2] = molecular target: RNC^EspP-Hydro-SRP complex (SRP with DACM-labeled Ffh(C235), loaded with RNC^EspP-Hydro) (Escherichia coli | not stated) (UniProt P0AGD7); assay: FRET or BRET
# [3] = molecular target: SRP with fluorescein-labeled Ffh(C421) (Escherichia coli) (UniProt P0AGD7); assay: […]
Substance,Kd [1],kon [1],Kd [2],kon [2],Kd [3]
BODIPY-FL (acceptor)-labeled FtsY(C487) (from UniProt P10121 1-497) (receptor),311 nM,9200 M⁻¹ s⁻¹,300 nM,15200 M⁻¹ s⁻¹,
RNC^EspP (ribosome-nascent chain complex displaying the EspP signal sequence) (from UniProt Q7BSW5 56-88),,,,,13.6 nM
